Test [1] concerns the target phospholamban (PLN) (mouse (endogenous in mouse heart)) (UniProt P61014). Put plainly: co-IP; PLN antibody immunoprecipitation from unfixed mouse cardiac tissue lysate (IP group), immunoblot of co-precipitated proteins.
Test [2] has the same target. Kind of test: co-IP; PLN antibody immunoprecipitation from 3 % glyoxal-fixed (cross-linked) mouse cardiac tissue lysate (xIP group), immunoblot of co-precipitated proteins. (A western blot detects proteins with antibodies after separation by electrophoresis.)

Consider one substance from publication PMC12145851.

Chain of UniProt P61014 (P61014 whole entry): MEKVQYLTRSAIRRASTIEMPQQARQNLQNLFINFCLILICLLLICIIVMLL

With “integrin beta-1 (ITGB1) (from UniProt P09055 21-798) (natural protein)”, the signal of co-precipitated protein (relative, %) in test [1] came out at 100%; in test [2], 282%.
